To fix the notation:
B1: ECB15 (SEQ ID NO: 145) (designed binder)
chain: LPAPKNLVVSEVTEDSARLSWDDPWAFYESFLIQYQESEKVGEAIVLTVPGSERSYDLTGLKPGTEYTVSIYGVHNVYKDTNMRGLPLSAIFTTAPAPAPAPAPLPAPKNLVVSRVTEDSARLSWTAPDAAFDSFWIRYFEFLGSGEAIVLTVPGSERSYDLTGLKPGTEYVVNIMGVKGGKISPPLSAIFTT
notes: kept as two constructs; also called ECB15 without Met; not shown: C-terminal poly-histidine tag
B2: A3 P81S (designed binder)
chain: LPAPKNLVVSEVTEDSARLSWDDPWAFYESFLIQYQESEKVGEAIVLTVPGSERSYDLTGLKPGTEYTVSIYGVHNVYKDTNMRGLPLSAIFTTAPAPAPAPAPLPAPKNLVVSRVTEDSARLSWTAPDAAFDSFWIRYFEFLGSGEAIVLTVPGSERSYDLTGLKPGTEYVVNIMGVKGGKISSPLSAIFTT
notes: In the context of ECB15; built as m66; not shown: C-terminal poly-histidine tag
B3: A3 R34S (designed binder)
chain: LPAPKNLVVSEVTEDSARLSWDDPWAFYESFLIQYQESEKVGEAIVLTVPGSERSYDLTGLKPGTEYTVSIYGVHNVYKDTNMRGLPLSAIFTTAPAPAPAPAPLPAPKNLVVSRVTEDSARLSWTAPDAAFDSFWISYFEFLGSGEAIVLTVPGSERSYDLTGLKPGTEYVVNIMGVKGGKISPPLSAIFTT
notes: as for B2
B4: A3 G40S (designed binder)
chain: LPAPKNLVVSEVTEDSARLSWDDPWAFYESFLIQYQESEKVGEAIVLTVPGSERSYDLTGLKPGTEYTVSIYGVHNVYKDTNMRGLPLSAIFTTAPAPAPAPAPLPAPKNLVVSRVTEDSARLSWTAPDAAFDSFWIRYFEFLSSGEAIVLTVPGSERSYDLTGLKPGTEYVVNIMGVKGGKISPPLSAIFTT
notes: as for B2
B5: A3 K78S (designed binder)
chain: LPAPKNLVVSEVTEDSARLSWDDPWAFYESFLIQYQESEKVGEAIVLTVPGSERSYDLTGLKPGTEYTVSIYGVHNVYKDTNMRGLPLSAIFTTAPAPAPAPAPLPAPKNLVVSRVTEDSARLSWTAPDAAFDSFWIRYFEFLGSGEAIVLTVPGSERSYDLTGLKPGTEYVVNIMGVKGGSISPPLSAIFTT
notes: Tested in the context of bispecific ECB15; not shown: C-terminal poly-histidine tag
B6: A3 I79S (designed binder)
chain: LPAPKNLVVSEVTEDSARLSWDDPWAFYESFLIQYQESEKVGEAIVLTVPGSERSYDLTGLKPGTEYTVSIYGVHNVYKDTNMRGLPLSAIFTTAPAPAPAPAPLPAPKNLVVSRVTEDSARLSWTAPDAAFDSFWIRYFEFLGSGEAIVLTVPGSERSYDLTGLKPGTEYVVNIMGVKGGKSSPPLSAIFTT
notes: as for B2
B7: A3 W32S (designed binder)
chain: LPAPKNLVVSEVTEDSARLSWDDPWAFYESFLIQYQESEKVGEAIVLTVPGSERSYDLTGLKPGTEYTVSIYGVHNVYKDTNMRGLPLSAIFTTAPAPAPAPAPLPAPKNLVVSRVTEDSARLSWTAPDAAFDSFSIRYFEFLGSGEAIVLTVPGSERSYDLTGLKPGTEYVVNIMGVKGGKISPPLSAIFTT
notes: as for B2
B8: A3 M72S (designed binder)
chain: LPAPKNLVVSEVTEDSARLSWDDPWAFYESFLIQYQESEKVGEAIVLTVPGSERSYDLTGLKPGTEYTVSIYGVHNVYKDTNMRGLPLSAIFTTAPAPAPAPAPLPAPKNLVVSRVTEDSARLSWTAPDAAFDSFWIRYFEFLGSGEAIVLTVPGSERSYDLTGLKPGTEYVVNISGVKGGKISPPLSAIFTT
notes: as for B2
B9: A3 L39S (designed binder)
chain: LPAPKNLVVSEVTEDSARLSWDDPWAFYESFLIQYQESEKVGEAIVLTVPGSERSYDLTGLKPGTEYTVSIYGVHNVYKDTNMRGLPLSAIFTTAPAPAPAPAPLPAPKNLVVSRVTEDSARLSWTAPDAAFDSFWIRYFEFSGSGEAIVLTVPGSERSYDLTGLKPGTEYVVNIMGVKGGKISPPLSAIFTT
notes: as for B2
B10: A3 F38S (designed binder)
chain: LPAPKNLVVSEVTEDSARLSWDDPWAFYESFLIQYQESEKVGEAIVLTVPGSERSYDLTGLKPGTEYTVSIYGVHNVYKDTNMRGLPLSAIFTTAPAPAPAPAPLPAPKNLVVSRVTEDSARLSWTAPDAAFDSFWIRYFESLGSGEAIVLTVPGSERSYDLTGLKPGTEYVVNIMGVKGGKISPPLSAIFTT
notes: as for B2
B11: A3 V68S (designed binder)
chain: LPAPKNLVVSEVTEDSARLSWDDPWAFYESFLIQYQESEKVGEAIVLTVPGSERSYDLTGLKPGTEYTVSIYGVHNVYKDTNMRGLPLSAIFTTAPAPAPAPAPLPAPKNLVVSRVTEDSARLSWTAPDAAFDSFWIRYFEFLGSGEAIVLTVPGSERSYDLTGLKPGTEYSVNIMGVKGGKISPPLSAIFTT
notes: as for B2
B12: A3 N70S (designed binder)
chain: LPAPKNLVVSEVTEDSARLSWDDPWAFYESFLIQYQESEKVGEAIVLTVPGSERSYDLTGLKPGTEYTVSIYGVHNVYKDTNMRGLPLSAIFTTAPAPAPAPAPLPAPKNLVVSRVTEDSARLSWTAPDAAFDSFWIRYFEFLGSGEAIVLTVPGSERSYDLTGLKPGTEYVVSIMGVKGGKISPPLSAIFTT
notes: as for B2
B13: A3 F36S (designed binder)
chain: LPAPKNLVVSEVTEDSARLSWDDPWAFYESFLIQYQESEKVGEAIVLTVPGSERSYDLTGLKPGTEYTVSIYGVHNVYKDTNMRGLPLSAIFTTAPAPAPAPAPLPAPKNLVVSRVTEDSARLSWTAPDAAFDSFWIRYSEFLGSGEAIVLTVPGSERSYDLTGLKPGTEYVVNIMGVKGGKISPPLSAIFTT
notes: as for B2
B14: ECB95 (designed binder, not shown: small tags and cut ends)
chain: MLPAPKNLVVSEVTEDSARLSWDDPWAFYESFLIQYQESEKVGEAIVLTVPGSERSYDLTGLKPGTEYTVSIYGVHNVYKDTNIRGLPLSAIFTTAPAPAPAPAPLPAPKNLVVSRVTEDSARLSWTAPDAAFDSFWIRYFEFVGSGEAIVLTVPGSERSYDLTGLKPGTEYVVNILGVKGGSISPPLSAIFTT
B15: ECB96 (designed binder, not shown: small tags and cut ends)
chain: MLPAPKNLVVSEVTEDSARLSWDDPWAFYESFLIQYQESEKVGEAIVLTVPGSERSYDLTGLKPGTEYTVSIYGVHNVYKDTNIRGLPLSAIFTTAPAPAPAPAPLPAPKNLVVSRVTEDSARLSWTAPDAAFDSFWIRYFEFVSKGDAIVLTVPGSERSYDLTGLKPGTEYVVNILGVKGGSISPPLSAIFTT
B16: ECB97 (designed binder, not shown: small tags and cut ends)
chain: MLPAPKNLVVSEVTEDSARLSWDDPWAFYESFLIQYQESEKVGEAIVLTVPGSERSYDLTGLKPGTEYTVSIYGVHNVYKDTNIRGLPLSAIFTTAPAPAPAPAPLPAPKNLVVSRVTEDSARLSWTAPDAAFDSFWIRYFEFLGSGEAIVLTVPGSERSYDLTGLKPGTEYVVNILSVKGGSISPPLSAIFTT
B17: ECB106 (designed binder, not shown: small tags and cut ends)
chain: MLPAPKNLVVSEVTEDSARLSWDDPHAFYESFLIQYQESEKVGEAIVLTVPGSERSYDLTGLKPGTEYTVSIYGVHNVYKDTNIRGLPLSAIFTTAPAPAPAPAPLPAPKNLVVSRVTEDSARLSWTAPDAAFDSFWIRYFEFLGSGEAIVLTVPGSERSYDLTGLKPGTEYVVNILGVKGGKISPPLSAIFTT
B18: ECB94 (designed binder, not shown: small tags and cut ends)
chain: MLPAPKNLVVSEVTEDSARLSWDDPWAFYESFLIQYQESEKVGEAIVLTVPGSERSYDLTGLKPGTEYTVSIYGVHNVYKDTNIRGLPLSAIFTTAPAPAPAPAPLPAPKNLVVSRVTEDSARLSWTAPDAAFDSFWIRYFEFLGSGEAIVLTVPGSERSYDLTGLKPGTEYVVNILGVKGGKISPPLSAIFTT
B19: ECB108 (designed binder, not shown: small tags and cut ends)
chain: MLPAPKNLVVSEVTEDSARLSWDDPHAFYESFLIQYQESEKVGEAIVLTVPGSERSYDLTGLKPGTEYTVSIYGVHNVYKDTNIRGLPLSAIFTTAPAPAPAPAPLPAPKNLVVSRVTEDSARLSWTAPDAAFDSFWIRYFEFVSKGDAIVLTVPGSERSYDLTGLKPGTEYVVNILGVKGGSISPPLSAIFTT
B20: ECB15 (designed binder, not shown: small tags and cut ends)
chain: MLPAPKNLVVSEVTEDSARLSWDDPWAFYESFLIQYQESEKVGEAIVLTVPGSERSYDLTGLKPGTEYTVSIYGVHNVYKDTNMRGLPLSAIFTTAPAPAPAPAPLPAPKNLVVSRVTEDSARLSWTAPDAAFDSFWIRYFEFLGSGEAIVLTVPGSERSYDLTGLKPGTEYVVNIMGVKGGKISPPLSAIFTT
B21: ECB107 (designed binder, not shown: small tags and cut ends)
chain: MLPAPKNLVVSEVTEDSARLSWDDPHAFYESFLIQYQESEKVGEAIVLTVPGSERSYDLTGLKPGTEYTVSIYGVHNVYKDTNIRGLPLSAIFTTAPAPAPAPAPLPAPKNLVVSRVTEDSARLSWTAPDAAFDSFWIRYFEFVGSGEAIVLTVPGSERSYDLTGLKPGTEYVVNILGVKGGSISPPLSAIFTT

In the first assay the target is T1, recombinant human c-Met Fc chimera (human, UniProt P08581 16-932).
T1 construct: also called c-Met-Fc fusion protein; c-Met extracellular domain; not shown: Fc
Put plainly: SPR. The source says:
Serine was chosen to decrease the hydrophobicity of the resulting mutants. […] Fold change indicates fold change of the KD value of a variant when compared to the parent P114AR7P95-A3.
B1: the Kd (in general, the equilibrium constant for the complex coming apart) worked out at 0.4 nM.

Regarding B2, the “Fold Change of KD vs parent” value is 4.25 fold; the Kd was 1.7 nM; the koff (usually the first-order rate constant of dissociation) was 0.000536 s⁻¹; the kon (in general, the rate constant with which the complex forms) was 321000 M⁻¹ s⁻¹.

For the molecule B3, the binding result is “no binding”.

For the molecule B4, the “Fold Change of KD vs parent” value was 4.25 fold, the Kd was 1.7 nM, the koff stood at 0.00032 s⁻¹ and the on-rate (kon) stood at 185000 M⁻¹ s⁻¹.

As for B5, the “Fold Change of KD vs parent” value stood at 0.75 fold, the Kd came to 0.3 nM, the koff stood at 0.00015 s⁻¹ and the kon stood at 440000 M⁻¹ s⁻¹.

Turning to B6, the binding result was “no binding”.

Turning to B7, the “Fold Change of KD vs parent” value is 74.5 fold, the Kd is 29.8 nM, the off-rate (koff) turned out to be 0.0086 s⁻¹ and the kon amounted to 289000 M⁻¹ s⁻¹.

Turning to B8, the binding result was “no binding”.

Regarding B9, the “Fold Change of KD vs parent” value came out at 6.75 fold, the Kd is 2.7 nM, the koff turned out to be 0.00127 s⁻¹ and the kon was 475000 M⁻¹ s⁻¹.

B10: the “Fold Change of KD vs parent” value was 1790 fold, the Kd worked out at 717 nM, the dissociation rate constant (koff) was 0.0323 s⁻¹ and the kon is 45100 M⁻¹ s⁻¹.

Turning to B11, the “Fold Change of KD vs parent” value was 9 fold, the Kd turned out to be 3.6 nM, the koff came out at 0.0012 s⁻¹ and the kon amounted to 329000 M⁻¹ s⁻¹.

As to B12, the “Fold Change of KD vs parent” value is 14.8 fold, the Kd worked out at 5.9 nM, the koff amounted to 0.00249 s⁻¹ and the kon was determined as 425000 M⁻¹ s⁻¹.

With B13, the “Fold Change of KD vs parent” value amounted to 68 fold, the Kd stood at 27.2 nM, the koff came out at 0.00512 s⁻¹ and the on-rate (kon) was determined as 188000 M⁻¹ s⁻¹.

The target of another assay is human EGFR on cells (human, UniProt P00533 25-1210). Nature of the assay: cell-based or functional assay.
Take B14: the “pEGFR inhibition in H292 cells (IC50)” value was 13.6 nM.

With B15, the “pEGFR inhibition in H292 cells (IC50)” value was 24.7 nM.

For the molecule B16, the “pEGFR inhibition in H292 cells (IC50)” value came out at 16.6 nM.

On to B17, for which the “pEGFR inhibition in H292 cells (IC50)” value was 367 nM.

As for B18, the “pEGFR inhibition in H292 cells (IC50)” value worked out at 5.1 nM.

As for B19, the “pEGFR inhibition in H292 cells (IC50)” value stood at 814 nM.

B20: the “pEGFR inhibition in H292 cells (IC50)” value was found to be 4.2 nM.

Turning to B21, the “pEGFR inhibition in H292 cells (IC50)” value was 812 nM.

Values taken from patent US20210206825A1 (published 2021).
